Patent US20250277200A1

Key:
[1] = target: C3a (Homo sapiens (Human)) (UniProt P01024); assay: cell-based or functional assay
[2] = target: C5a (Homo sapiens (Human)) (UniProt P01031); assay: cell-based or functional assay
Sequence of C5a (Homo sapiens (Human)) (P01031 678-751 limits assumed): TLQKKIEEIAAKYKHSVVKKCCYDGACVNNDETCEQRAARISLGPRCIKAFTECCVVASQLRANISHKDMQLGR

Sequence of C3a (Homo sapiens (Human)) (P01024 672-748 limits assumed): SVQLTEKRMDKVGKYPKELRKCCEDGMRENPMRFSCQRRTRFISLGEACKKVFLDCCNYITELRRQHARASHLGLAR

Substance: TAFI activation peptide-CPN1-HSA (enzyme)
- % Arg released (Arg LC-MS/MS, supernatant) [1]: 72%
- % Arg released (Arg LC-MS/MS, supernatant) [2]: 14%
